The record followed here is paper PMC6380956 (Biochemistry, 2019).

Assay [1] addresses Methanocaldococcus jannaschii CobT (NaMN:DMB phosphoribosyltransferase) (Methanocaldococcus jannaschii). The experiment in a line: AUC.
Assay [2] concerns the target T1, MjCobT (Methanocaldococcus jannaschii, UniProt Q58993).
T1 sequence (Q58993 1-350): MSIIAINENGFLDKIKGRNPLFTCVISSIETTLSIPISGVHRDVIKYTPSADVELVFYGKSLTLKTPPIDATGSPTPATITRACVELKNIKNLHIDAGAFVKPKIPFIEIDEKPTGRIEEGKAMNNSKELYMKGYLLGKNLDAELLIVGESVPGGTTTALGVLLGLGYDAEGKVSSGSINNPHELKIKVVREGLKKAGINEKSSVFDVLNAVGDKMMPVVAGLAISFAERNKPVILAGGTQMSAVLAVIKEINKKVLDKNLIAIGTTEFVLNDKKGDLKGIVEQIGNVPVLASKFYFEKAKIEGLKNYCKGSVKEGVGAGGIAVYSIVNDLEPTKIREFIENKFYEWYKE
The experiment in a line: product formation by purified enzyme from NaMN and [[…]-14C]-DMB, TLC. The format is biochemical.

Assay [3] addresses T1, MjCobT. The experiment in a line: isothermal titration calorimetry. The format is binding.

With “Methanocaldococcus jannaschii CobT (NaMN:DMB phosphoribosyltransferase) (enzyme)”, in assay [1], the percent of the c(s) distribution in the dimer species is 81.3% and the stoichiometry N stood at 2.
`Cc1cc2ncn([C@H]3O[C@H](COP(=O)(O)O)[C@@H](O)[C@H]3O)c2cc1C` [α-RP]: the “product formation by purified enzyme from NaMN and [2-14C]-DMB, TLC” value in assay [2] was “the amount of MjCobT-generated α-RP is displayed as a function of time for each concentration of NaMN tested”.
`O=C([O-])c1ccc[n+]([C@@H]2O[C@H](COP(=O)(O)O)[C@@H](O)[C@H]2O)c1` [NaMN] gave a Kd in assay [3] of 3.2 µM.
